Measurements from patent publication US11306156.
Values belong to the substance of their own block, whether it stands above or below them.

How the values were obtained:
[1] = target: tissue factor (TF) antigen (UniProt P13726); assay: SPR (ProteOn), Fab captured via anti-penta-His, TF injected, 1:1 fit; batch C (+)
[2] = target: tissue factor (TF) antigen (UniProt P13726); assay: SPR (ProteOn), Fab captured via anti-penta-His, TF injected, 1:1 fit; reference wild-type D3H44 Fab; batch C (+)
[3] = target: D3H44 light chain V133G_N137K_S174R_S176R (Kabat), N-terminal HA or FLAG tag; assay: LCCA co-expression, competing light chain m30, L1:L2 DNA 1:3 normalized to 1:1, SPR tag read-out
[4] = target: tissue factor (TF) antigen (UniProt P13726); assay: SPR (ProteOn XPR36), Fab captured by His tag on anti-penta-His surface, TF injected as analyte, 1:1 fit; batch C (+)
[5] = target: tissue factor (TF) antigen (UniProt P13726); assay: SPR (ProteOn XPR36), Fab captured by His tag on anti-penta-His surface, TF injected as analyte; against wild-type D3H44 Fab; batch C (+)
[6] = target: D3H44 light chain Q124E_T180E (Kabat), N-terminal HA or FLAG tag; assay: LCCA co-expression, competing light chain m36, L1:L2 DNA 1:3 normalized to 1:1, SPR tag read-out
[7] = target: D3H44 light chain Q124E_T180E (Kabat), N-terminal HA or FLAG tag; assay: LCCA co-expression, competing light chain m36, L1:L2 DNA 1:9 normalized to 1:1, SPR tag read-out
[8] = target: D3H44 light chain S131K (Kabat), N-terminal HA or FLAG tag; assay: LCCA co-expression, competing light chain m37, L1:L2 DNA 1:3 normalized to 1:1, SPR tag read-out
[9] = target: D3H44 light chain S131K (Kabat), N-terminal HA or FLAG tag; assay: LCCA co-expression, competing light chain m37, L1:L2 DNA 1:9 normalized to 1:1, SPR tag read-out
[10] = target: tissue factor (TF) antigen (UniProt P13726); assay: SPR KD against wild-type D3H44 Fab (reference KD 0.157 nM)
[11] = target: tissue factor (TF) antigen (UniProt P13726); assay: SPR (ProteOn), Fab captured on anti-penta-His, TF analyte, 1:1 fit
[12] = target: tissue factor (TF) antigen (UniProt P13726); assay: SPR KD against wild-type D3H44 Fab; * estimated value (estimated wild-type KD […])
[13] = target: tissue factor (TF) antigen (UniProt P13726); assay: SPR (ProteOn), Fab captured on anti-penta-His, TF analyte, 1:1 fit; * estimated from a Fab differing only in the L chain tag
[14] = target: D3H44 light chain Q124K_V133G_S176R_T178K (Kabat), N-terminal HA or FLAG tag; assay: LCCA co-expression, competing light chain m23, L1:L2 DNA 1:3 normalized to 1:1, SPR tag read-out
[15] = target: D3H44 light chain V133G_S176D_T178D_T180E (Kabat), N-terminal HA or FLAG tag; assay: LCCA co-expression, competing light chain m24, L1:L2 DNA 1:3 normalized to 1:1, SPR tag read-out
[16] = target: D3H44 light chain Q124K_V133G_S176R_T178K (Kabat), N-terminal HA or FLAG tag; assay: LCCA co-expression, competing light chain m26, L1:L2 DNA 1:3 normalized to 1:1, SPR tag read-out
[17] = target: D3H44 light chain S121K_V133G_N137K_S174R_S176R (Kabat), N-terminal HA or FLAG tag; assay: LCCA co-expression, competing light chain m30, L1:L2 DNA 1:3 normalized to 1:1, SPR tag read-out
[18] = target: tissue factor (TF) antigen (UniProt P13726); assay: SPR (ProteOn XPR36), Fab captured on anti-penta His, TF injected at 0.74-60 nM, 1:1 model; median
[19] = target: tissue factor (TF) antigen (UniProt P13726); assay: SPR (ProteOn XPR36), Fab captured on anti-penta-His surface, TF as analyte; reference wild-type D3H44 Fab; batch C
[20] = target: tissue factor (TF) antigen (UniProt P13726); assay: SPR (ProteOn XPR36), Fab captured on anti-penta-His surface, TF as analyte, 1:1 fit; batch C (stored about 2 months at 4 C)
[21] = target: D3H44 light chain Q124E_Q160E_T180E (Kabat) with N-terminal HA or FLAG tag; assay: LCCA, SPR read-out of light-chain tags; light-chain DNA 1:3 normalized to 1:1; competing light chain m16
[22] = target: D3H44 light chain Q124K_T178R (Kabat) with N-terminal HA or FLAG tag; assay: LCCA, SPR read-out of light-chain tags; light-chain DNA 1:3 normalized to 1:1; competing light chain m17
[23] = target: D3H44 light chain Q124R_Q160K_T178R (Kabat) with N-terminal HA or FLAG tag; assay: as above
[24] = target: D3H44 light chain T178R (Kabat) with N-terminal HA or FLAG tag; assay: as above
[25] = target: D3H44 light chain Q124E_Q160E_T180E (Kabat) with N-terminal HA or FLAG tag; assay: LCCA, SPR read-out of light-chain tags; light-chain DNA 1:3 normalized to 1:1; competing light chain m18
[26] = target: D3H44 light chain Q124E_T180E (Kabat) with N-terminal HA or FLAG tag; assay: as above
[27] = target: D3H44 light chain T178R (Kabat) with N-terminal HA or FLAG tag; assay: LCCA, SPR read-out of light-chain tags; light-chain DNA 1:3 normalized to 1:1; competing light chain m19
[28] = target: D3H44 light chain Q124E_Q160E_T180E (Kabat) with N-terminal HA or FLAG tag; assay: LCCA, SPR read-out of light-chain tags; light-chain DNA 1:3 normalized to 1:1; competing light chain m20
[29] = target: D3H44 light chain Q124E_S131T_T178F_T180E (Kabat) with N-terminal HA or FLAG tag; assay: as above
[30] = target: D3H44 light chain Q124R_Q160K_T178R (Kabat) with N-terminal HA or FLAG tag; assay: LCCA, SPR read-out of light-chain tags; light-chain DNA 1:3 normalized to 1:1; competing light chain m22
[31] = target: D3H44 light chain Q124E_V133G_S176D_T178E_T180E (Kabat), N-terminal HA or FLAG tag; assay: LCCA co-expression, competing light chain m24, L1:L2 DNA 1:3 normalized to 1:1, SPR tag read-out
[32] = target: D3H44 light chain Q124K_V133G_S176R_T178K (Kabat), N-terminal HA or FLAG tag; assay: LCCA co-expression, competing light chain m25, L1:L2 DNA 1:3 normalized to 1:1, SPR tag read-out

Kd [1]: 0.15 nM
change in median KD compared to wild type, -(log(KD design)-log(KD wt)) [2]: 0.02
Substance: D3H44 Fab heterodimer (H1L1) of LCCA Set # 9851: H1 S186K, L1 Q124E_T178E_T180E

H2L2:H2L1 normalized median ratio [3]: 8 of 100
Substance: D3H44 Fab heavy chain L124R_H172R (Kabat), C-terminal ABD2-His6 tag

Kd [4]: 0.14 nM
change in median KD compared to wild type, -(log(KD design)-log(KD wt)) [5]: 0.05 log
Substance: D3H44 H1L1 Fab heterodimer of LCCA Set # 9982 (H1 S186K, L1 S131E)

H2L2:H2L1 normalized median ratio [6]: 98 of 100
H2L2:H2L1 normalized median ratio [7]: 93 of 100
H2L2:H2L1 normalized median ratio [8]: 2 of 100
H2L2:H2L1 normalized median ratio [9]: 7 of 100
Substance: D3H44 Fab heavy chain S186K (Kabat), C-terminal ABD2-His6 tag

Kd [1]: 0.14 nM
change in median KD compared to wild type, -(log(KD design)-log(KD wt)) [2]: 0.05
Substance: D3H44 Fab heterodimer (H1L1) of LCCA Sets # 9979, 9983: H1 Q179K, L1 S131E

Change in KD with respect to wild type (-(log(KD design) - log(KD wt))) [10]: -0.23
Kd [11]: 0.27 nM
Change in KD with respect to wild type (-(log(KD design) - log(KD wt))) [12]: -0.23
Kd [13]: 0.27 nM
Substance: D3H44 Fab heterodimer, H: L143E_K145T_Q179E, L: Q124R_T178R (H1L1 Fab of LCCA sets 9663, 9666, 9667, 9671, 9675, 9679 and 9682)

H1L1:H1L2 normalized median ratio [14]: 88 of 100
H1L1:H1L2 normalized median scalar value ln(r1/f1) [14]: 1.95
H1L1:H1L2 normalized median ratio [15]: 37 of 100
H1L1:H1L2 normalized median ratio [16]: 63 of 100
H1L1:H1L2 normalized median scalar value ln(r1/f1) [16]: 0.55
Substance: D3H44 Fab heavy chain L124E_L143E_K145M (Kabat), C-terminal ABD2-His6 tag

H2L2:H2L1 normalized median ratio [17]: 5 of 100
Substance: D3H44 Fab heavy chain L124R_A125R_H172R (Kabat), C-terminal ABD2-His6 tag

H2L2:H2L1 normalized median ratio [14]: 24 of 100
H2L2:H2L1 normalized median ratio [15]: 93 of 100
H2L2:H2L1 normalized median ratio [16]: 7 of 100
Substance: D3H44 Fab heavy chain L124R_S186K (Kabat), C-terminal ABD2-His6 tag

Kd [18]: 0.157 nM
Substance: wild-type D3H44 Fab heterodimer where the light chain contains a FLAG tag

Change in median values of KD of h1l1 Fab heterodimer compared to wild type (-(log(KD design)-log(KD wt))) [19]: 0.05
Kd [20]: 0.14 nM
Substance: D3H44 Fab heterodimer H1 S186K / L1 S131E

H2L2:H2L1 normalized median ratio [21]: 83%
H2L2:H2L1 normalized median ratio [22]: 17%
H2L2:H2L1 normalized median ratio [23]: 19%
H2L2:H2L1 normalized median ratio [24]: 9%
H2L2:H2L1 normalized median ratio [25]: 91%
H2L2:H2L1 normalized median ratio [26]: 96%
H2L2:H2L1 normalized median ratio [27]: 4%
H2L2:H2L1 normalized median ratio [28]: 81%
H2L2:H2L1 normalized median ratio [29]: 96%
H2L2:H2L1 normalized median ratio [30]: 4%
Substance: D3H44 Fab heavy chain S186K (Kabat) with C-terminal ABD2-His6 tag

H1L1:H1L2 normalized median ratio [3]: 53 of 100
H1L1:H1L2 normalized median scalar value ln(r1/f1) [3]: 0.12
Substance: D3H44 Fab heavy chain L124E_H172T (Kabat), C-terminal ABD2-His6 tag

Kd [4]: 0.14 nM
change in median KD compared to wild type, -(log(KD design)-log(KD wt)) [5]: 0.06 log
Substance: D3H44 H1L1 Fab heterodimer of LCCA Sets # 9888 and 9887 (H1 S186R, L1 Q124E_T178E)

H2L2:H2L1 normalized median ratio [31]: 84 of 100
H2L2:H2L1 normalized median ratio [32]: 16 of 100
Substance: D3H44 Fab heavy chain L124R_D146N_Q179K (Kabat), C-terminal ABD2-His6 tag

H1L1:H1L2 normalized median ratio [14]: 81 of 100
H1L1:H1L2 normalized median scalar value ln(r1/f1) [14]: 1.44
H1L1:H1L2 normalized median ratio [31]: 21 of 100
H1L1:H1L2 normalized median ratio [32]: 79 of 100
H1L1:H1L2 normalized median scalar value ln(r1/f1) [32]: 1.31
Substance: D3H44 Fab heavy chain L124E_L143D_K145T (Kabat), C-terminal ABD2-His6 tag

H1L1:H1L2 normalized median ratio [14]: 89 of 100
H1L1:H1L2 normalized median scalar value ln(r1/f1) [14]: 2.08
H1L1:H1L2 normalized median ratio [15]: 38 of 100
H1L1:H1L2 normalized median ratio [16]: 62 of 100
H1L1:H1L2 normalized median scalar value ln(r1/f1) [16]: 0.43
Substance: D3H44 Fab heavy chain L124E_L143E_K145T (Kabat), C-terminal ABD2-His6 tag

Kd [1]: 0.06 nM
change in median KD compared to wild type, -(log(KD design)-log(KD wt)) [2]: 0.41
Substance: D3H44 Fab heterodimer (H1L1) of LCCA Sets # 9829, 9830: H1 S186K, L1 Q124E_Q160E_T178E

Kd [4]: 0.14 nM
change in median KD compared to wild type, -(log(KD design)-log(KD wt)) [5]: 0.05 log
Substance: D3H44 H1L1 Fab heterodimer of LCCA Set # 9648 (H1 L143E_K145T_Q179E, L1 Q124K_T178R)

H1L1:H1L2 normalized median ratio [6]: 58 of 100
H1L1:H1L2 normalized median ratio [7]: 25 of 100
H1L1:H1L2 normalized median ratio [8]: 42 of 100
H1L1:H1L2 normalized median scalar value ln(r1/f1) [8]: -0.34
H1L1:H1L2 normalized median ratio [9]: 75 of 100
H1L1:H1L2 normalized median scalar value ln(r1/f1) [9]: 1.1
Substance: D3H44 Fab heavy chain K145T_Q179E (Kabat), C-terminal ABD2-His6 tag

H1L1:H1L2 normalized median ratio [17]: 27 of 100
H1L1:H1L2 normalized median scalar value ln(r1/f1) [17]: -0.97
Substance: D3H44 Fab heavy chain L124E_A125S_H172T_K228D (Kabat), C-terminal ABD2-His6 tag

Change in median values of KD of h1l1 Fab heterodimer compared to wild type (-(log(KD design)-log(KD wt))) [19]: 0.2
Kd [20]: 0.1 nM
Substance: D3H44 Fab heterodimer H1 S188L_V190Y / L1 V133S

H1L1:H1L2 normalized median ratio [31]: 17 of 100
H1L1:H1L2 normalized median ratio [32]: 83 of 100
H1L1:H1L2 normalized median scalar value ln(r1/f1) [32]: 1.59
Substance: D3H44 Fab heavy chain L124E_L143D_K145M (Kabat), C-terminal ABD2-His6 tag
